Data from US20260008822A1 (RECOURSE BIOLOGICS, published 2026).

Target: T1, E0 (EGFR-OMCP bispecific fusion protein: cetuximab scFv - (GGGGS)3 linker - OMCP - His8 tag)
T1 construct: also called OMCP-EGFR; OMCP-EGFR scFv
Test: SPR (ProteOn XPR36), human NKG2D amine-coupled to the chip, bispecific as analyte, 1:1 Langmuir fit

B1: human NKG2D (receptor, UniProt P26718 78-216, looked up)
chain: FLNSLFNQEVQIPLTESYCGPCPKNWICYKNNCYQFFDESKNWYESQASCMSQNASLLKVYSKEDQDLLKLVKSYHWMGLVHIPTNGSWQWEDGSILSPNLLTIIEMQKGDCALYASSFKGYIENCSTPNTYICMQRTV
  Kd: 0.17 nM
